Results: the nanobody polyreactivity screen of Harvey et al. (2022)

experiment: yeast display, Sf9 membrane polyspecificity reagent, FACS + sequencing; frameworks hold sequencing errors
Procedure, shortened: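 Using colony PCR, genes from sorted yeast display clones were amplified, then sequenced on MiSeq at 2 × 250 and filtered by CDR length. The clones had been stained with 10% biotinylated, detergent-solubilized Sf9 membrane reagent for 1 hour at 4 °C and sorted by FACS into low and high (top ~1%) gates on anti-HA and streptavidin fluorescence. Polyreactivity labels come from the gate of origin.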

Sequence	polyreactivity (PSR sort gate)
QVQLVESGGGLVQAGGSLRLSCAASGSIFDFYAMGWYRQAPGKERELVADISSSDGSTSYADSVKGRFTISRDNAKNTVYLQLNSLKPEDTAVYYCAASQLFGWFPYDYWGQGTQVTVSS	high polyreactivity
QVQLVESGGGLVQAGGSLRLSCAASGSIFDFYAMGWYRQAPGKERESVAAISWSGGSTYADSVKGRFTISRDNAKNTVYLQMNSLKPEDTAVYYCAARWGTYWGVLGGDPDIDYDYWGQGTQVTVSS	low polyreactivity
QVQLVESGGGLVQAGGSLRLSCAASGSIFDFYDMGWYRPAPGKERELVAAISSGGGSTYYADSVKGRFTISRDNAKNTVYLQMNSLKPEDTAVYYCAADLKGNYYLGIARYVLYYWGQGTQVTVSS	low polyreactivity
QVQLVESGGGLVQAGGSLRLSCAASGSIFDGNAMGWYRQAPGKERDLVAANTKNDGTTYYADSVKGRFTISRDNAKNTVYLQMNSLKQEDTAVYYCAAESVYQVYTYVSSGDYWGQGTQVTVSS	low polyreactivity
QVQLVESGGGLVQAGGSLRLSCAASGSIFDGNAMVSYRQAPGKDRELVADISRGGSTYYADSVKGPFTISRDNAKNTVYLQMNSLTPEDTAVYYCNVEFFFWPYEYGYWGQGTQVTVSS	low polyreactivity
QVQLVESGGGLVQAGGSLRLSCAASGSIFDGNDMGWYRQAPGKEREKVAAITIGDASRFYADSVKGRFTISRDNAKNTVYFQMNRLKPEDTAVYYCAADRPGLEDDPIYDYWGQGTQVTVSS	low polyreactivity
QVQLVESGGGLVQAGGSLRLSCAASGSIFDGYAMGWYRQAPGKEREFVASIRFSTGRTYYADSVKGRFTISRDNAKNTVYLQMNSLKPEDTAVYYCNAPQGFVWRYSSWGPYDYWGQGTQVTVSS	high polyreactivity
QVQLVESGGGLVQAGGSLRLSCAASGSIFDGYAMGWYRQAPGKETELVARITWSGGSTYYADSVKWRFTISRDNAKNTVYLQMNSLKPEDTAVYYCNVDQVHPTRGLDYWGQGTQVTVSS	low polyreactivity
QVQLVESGGGLVQAGGSLRLSCAASGSIFDGYAMGWYRQAPWKERELVAAISYTGGRKYYADSVKGRFTISRDNAKNTVYLQMNSLKPEDTAVYYCAARYHLGRSPRYYRGQGTQVTVSS	high polyreactivity
QVQLVESGGGLVQAGGSLRLSCAASGSIFDHYVMGWYRQSPGKERELVAAITSGDRTNYADSVKGRFTISRDNAKNTVYLQMNSLKPEDTAVYYCNADYQSYFYYTTWYYEYDYWGQGTQVTVSS	low polyreactivity
QVQLVESGGGLVQAGGSLRLSCAASGSIFDINAMGWYRPAPGKERELVADIRGGDSTNYADSVKGRFTISRDNATNTVYLQMNSLKPEDTAVYYSAARWRRSKYGVYPQRPYDYWGQGTQVTVSS	high polyreactivity
QVQLVESGGGLVQAGGSLRLSCAASGSIFDINVMGWYRQAPGKERELVAAITSGGRTNYADSVKGRFTISRDNAKNTVYLQMNSLKPEDTAVYYCAAVRHRQTYPKYNYWGQGTQVTVSS	high polyreactivity
QVQLVESGGGLVQAGGSLRLSCAASGSIFDIYAKGRSRQAPGKERELVAAISSGGSTTYADSVKGRFTISRDNAKNTVYFQMNCLTPEDTAVYYCATAYTPFAYLVTEMDYWGQGTQVTVLS	low polyreactivity
QVQLVESGGGLVQAGGSLRLSCAASGSIFDIYCMGWYRHAPGKERELVASISGGAGSTNYADSVKGRFTISRDNAKNTVYLQMNSLKPEDTAVYYCAAEVYVPDYFQHKFDVEYEYWGQGTQVTVSS	low polyreactivity
QVQLVESGGGLVQAGGSLRLSCAASGSIFDLYAMGWYRQAPGKERELVAAISSGATTNYADSVKGRFTISRDNAKNTVYLQMNSLKPEDTAVYYCAKYYRISSLYVIVSAYVYWGQGTQVTVSS	low polyreactivity
QVQLVESGGGLVQAGGSLRLSCAASGSIFDNYAMGCYRQAPRKERELVAAINFSDGDTYYGDSVKGRFTISRDNAKNTVYLQMNSLKPEDTAVYYCAAEVWYPPEYYDEYDYWGQGTQVTVSS	low polyreactivity
QVQLVESGGGLVQAGGSLRLSCAASGSIFDPYAMGWYRQAPGKERELVAAINGGSGSTFYADSVKGRFTISRDNAKNTVNLQMNSLKPEDTAVYYCAAKIWRYSPSYYPEPRGDYWGQGTQVTVSS	low polyreactivity
